± gives the standard deviation of the averaged measurements.
Tested on: Saccharomyces cerevisiae
Assay: protein stability index of tFT-peptide fusion (C-terminal peptide) (PSI (0-1 scale)); higher = more stable (slower turnover)
Details: temperature: 30 C
Experimental: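 MPS profiling in S. cerevisiae of the yeast C-terminome library: the last 12 aa of each annotated ORF are fused to the C-terminus of a sfGFP-mCherry timer, after a GGGS linker. Cells are FACS-sorted into 8 mCherry/sfGFP bins and deep-sequenced. PSI runs from 0 (unstable) to 1 (stable); wild type and das1Δ backgrounds, two technical replicates each.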

[1] = genetic background: das1 deletion

Sequence	protein stability index [1]	protein stability index (genetic background: wild type)
PYKSTELRSVAN [YDL187C C-terminal 12 aa]	0.671 ± 0.04	0.742 ± 0.048
EATIENLKRLKL [VAS1 C-terminal 12 aa]	0.693 ± 0.016	0.642 ± 0.0087
AAIPVILAKIKV [SHE4 C-terminal 12 aa]	0.502 ± 0.019	0.56 ± 0.13
KILGRYVVDTSK [ADH3 C-terminal 12 aa]	0.7177 ± 0.0055	0.6547 ± 0.0035
RVRTLARKHLSK [TRS20 C-terminal 12 aa]	0.692 ± 0.02	0.686 ± 0.018
TNYEVTDTYTNS [SOM1 C-terminal 12 aa]	0.7107 ± 0.0011	0.712 ± 0.017
ANFECSSWKFAS [EFM5 C-terminal 12 aa]	0.7167 ± 0.0049	0.646 ± 0.0085
KETTTRNYRGTC [GAD1 C-terminal 12 aa]	0.71 ± 0.029	0.707 ± 0.032
YFNKTEFLLADN [MRPL17 C-terminal 12 aa]	0.713 ± 0.018	0.677 ± 0.025
NLNQHVKTHASL [COM2 C-terminal 12 aa]	0.6752 ± 0.0042	0.681 ± 0.029
IDTWEIKFNELF [YLR287C C-terminal 12 aa]	0.732 ± 0.042	0.6954 ± 0.0012
NRFGVLPDDVEE [ECM1 C-terminal 12 aa]	0.714 ± 0.024	0.704 ± 0.032
MLNQQQQQQQQS [NRD1 C-terminal 12 aa]	0.702 ± 0.016	0.739 ± 0.017
FFRYFTFSSSYW [YDR464C-A C-terminal 12 aa]	0.7002 ± 0.004	0.661 ± 0.022
SSSSTSVNKTLD [VIP1 C-terminal 12 aa]	0.734 ± 0.04	0.707 ± 0.053
FVLIVLGLLTYL [GET2 C-terminal 12 aa]	0.364 ± 0.0094	0.38 ± 0.019
AKPAYHWQTRYR [KIN3 C-terminal 12 aa]	0.703 ± 0.021	0.665 ± 0.017
LYTFIVKKVKRD [GID12 C-terminal 12 aa]	0.671 ± 0.045	0.685 ± 0.024
GLKGLFPTSYCK [BZZ1 C-terminal 12 aa]	0.702 ± 0.039	0.732 ± 0.02
LEDQDGSLYLNY [PFU1 C-terminal 12 aa]	0.712 ± 0.011	0.662 ± 0.025
KSCDEDGQEDEA [TPA1 C-terminal 12 aa]	0.693 ± 0.014	0.642 ± 0.011

Sequence	protein stability index [1]	protein stability index (genetic background: wild type)
QLMYEQDDEEVP [HAP3 C-terminal 12 aa]	0.718 ± 0.015	0.64582 ± 0.00022
QVNKPGPLTVPF [MEH1 C-terminal 12 aa]	0.702 ± 0.015	0.716 ± 0.018
DAYHKAAEENKD [MCT1 C-terminal 12 aa]	0.6729 ± 0.0053	0.693 ± 0.016
QFAQDTLKNFVQ [SAM35 C-terminal 12 aa]	0.733 ± 0.022	0.713 ± 0.03
PKDLTSLLEWKE [CLA4 C-terminal 12 aa]	0.7005 ± 0.006	0.681 ± 0.044
DRVQRAFPKPDT [GLG2 C-terminal 12 aa]	0.704 ± 0.016	0.686 ± 0.032
VSNASNGCVLDA [ILV3 C-terminal 12 aa]	0.70459 ± 3.7e-05	0.707 ± 0.013
SSSNKSQRNGRY [AIR1 C-terminal 12 aa]	0.712 ± 0.011	0.68967 ± 0.00054
IYALSIKHPKEI [CPT1 C-terminal 12 aa]	0.713 ± 0.0085	0.7248 ± 0.0029
KQIVFEIPSETH [RPS7A C-terminal 12 aa]	0.701 ± 0.013	0.6789 ± 0.0028
ENFSSALQSPIF [YDL152W C-terminal 12 aa]	0.733 ± 0.0084	0.754 ± 0.055
ENVLFYIGRVNK [COB C-terminal 12 aa]	0.726 ± 0.026	0.669 ± 0.017
LGFYYIYTLHRA [ERG9 C-terminal 12 aa]	0.505 ± 0.045	0.498 ± 0.03
RTNHIYNYENSD [DFG16 C-terminal 12 aa]	0.703 ± 0.0077	0.672 ± 0.011
QKTAQQKNCSIM [YNL234W C-terminal 12 aa]	0.746 ± 0.018	0.721 ± 0.019
LLAKKKLKPNLL [YGR293C C-terminal 12 aa]	0.714 ± 0.028	0.7 ± 0.04
NADDPSYYHYLS [CUL3 C-terminal 12 aa]	0.7059 ± 0.0024	0.68 ± 0.01
RDWSSFSKDYEI [PMS1 C-terminal 12 aa]	0.7561 ± 0.0022	0.699 ± 0.0094
VLSNNVPYTQPR [RCH1 C-terminal 12 aa]	0.703 ± 0.029	0.745 ± 0.054
KYCRVPLPENNR [YEL008C-A C-terminal 12 aa]	0.709 ± 0.015	0.677 ± 0.068
